Assay [1] has as its target T1, GST-D2-IC3 (third intracellular loop of the rat dopamine D2L receptor) (Rattus norvegicus, UniProt P61169).
T1 sequence (P61169 211-371): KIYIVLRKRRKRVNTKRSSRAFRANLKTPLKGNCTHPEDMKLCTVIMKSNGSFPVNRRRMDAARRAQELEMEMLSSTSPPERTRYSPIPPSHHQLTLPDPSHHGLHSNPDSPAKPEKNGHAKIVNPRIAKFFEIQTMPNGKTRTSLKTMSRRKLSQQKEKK
The experiment in a line: GST pull-down binding of purified arrestin to GST-D2-IC3.

Assay [2] addresses T2, GST-D3-IC3 (third intracellular loop of the rat dopamine D3 receptor) (Rattus norvegicus, UniProt P19020).
T2 sequence (P19020 210-372): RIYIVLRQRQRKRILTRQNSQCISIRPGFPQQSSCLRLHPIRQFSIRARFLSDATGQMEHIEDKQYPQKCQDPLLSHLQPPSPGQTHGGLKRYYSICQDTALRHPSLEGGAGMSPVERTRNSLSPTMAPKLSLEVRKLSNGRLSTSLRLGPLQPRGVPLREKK
Kind of assay: GST pull-down binding of purified arrestin to GST-D3-IC3.

In the next assay the target is T3, D2-IC3ΔNT5 (Rattus norvegicus, UniProt P61169).
T3 sequence (P61169 216-371 limits assumed): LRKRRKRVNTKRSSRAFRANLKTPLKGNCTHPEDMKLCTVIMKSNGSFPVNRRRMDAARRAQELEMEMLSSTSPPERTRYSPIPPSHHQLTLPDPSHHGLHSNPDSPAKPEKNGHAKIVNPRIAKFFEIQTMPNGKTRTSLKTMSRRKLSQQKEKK
Kind of assay: GST pull-down binding of arrestin3 to D2-IC3ΔNT5. Conditions: versus D2-IC3; 400 ng fusion protein, 100 ng arrestin3.

Another assay concerns the target T4, D2-IC3ΔNT10 (Rattus norvegicus, UniProt P61169).
T4 sequence (P61169 221-371 limits assumed): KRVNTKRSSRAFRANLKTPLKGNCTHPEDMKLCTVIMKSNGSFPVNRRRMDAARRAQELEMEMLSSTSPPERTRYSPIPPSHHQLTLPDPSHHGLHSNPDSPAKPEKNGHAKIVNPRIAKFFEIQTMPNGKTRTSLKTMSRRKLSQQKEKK
Kind of assay: GST pull-down binding of arrestin3 to D2-IC3ΔNT10. As to conditions: versus D2-IC3; 400 ng fusion protein, 100 ng arrestin3.

In another assay the target is wild type D2 receptor (Rattus norvegicus, UniProt P61169). Conditions: PTX 50 ng/ml overnight prior to agonist treatment.
Sequence of wild type D2 receptor (P61169 whole entry): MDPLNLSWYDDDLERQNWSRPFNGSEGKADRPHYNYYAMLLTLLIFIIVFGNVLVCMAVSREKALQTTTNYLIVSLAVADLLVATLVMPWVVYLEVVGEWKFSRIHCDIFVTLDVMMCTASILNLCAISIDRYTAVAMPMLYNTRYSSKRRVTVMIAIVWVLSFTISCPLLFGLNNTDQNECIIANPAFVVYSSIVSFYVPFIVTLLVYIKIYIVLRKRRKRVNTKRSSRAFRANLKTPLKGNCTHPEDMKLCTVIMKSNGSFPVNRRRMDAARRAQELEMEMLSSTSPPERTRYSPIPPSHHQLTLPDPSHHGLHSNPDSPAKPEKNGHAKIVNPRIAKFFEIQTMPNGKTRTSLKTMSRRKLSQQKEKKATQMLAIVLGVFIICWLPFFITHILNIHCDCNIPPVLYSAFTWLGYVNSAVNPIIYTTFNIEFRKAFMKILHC
The target of the next assay is D2-A4 mutant receptor (Rattus norvegicus, UniProt P61169, I212A/I214A/V215A/Y213A). As to conditions: PTX 50 ng/ml overnight prior to agonist treatment.
Sequence of D2-A4 mutant receptor (P61169 whole entry I212A/Y213A/I214A/V215A): as the sequence (P61169 whole entry) above, with I212A, Y213A, I214A, V215A counted along it
For assay [3], the target named is purified bovine arrestin3 (bovine, UniProt P32120 1-420). The experiment in a line: pull-down.
Sequence of purified bovine arrestin3 (P32120 whole entry): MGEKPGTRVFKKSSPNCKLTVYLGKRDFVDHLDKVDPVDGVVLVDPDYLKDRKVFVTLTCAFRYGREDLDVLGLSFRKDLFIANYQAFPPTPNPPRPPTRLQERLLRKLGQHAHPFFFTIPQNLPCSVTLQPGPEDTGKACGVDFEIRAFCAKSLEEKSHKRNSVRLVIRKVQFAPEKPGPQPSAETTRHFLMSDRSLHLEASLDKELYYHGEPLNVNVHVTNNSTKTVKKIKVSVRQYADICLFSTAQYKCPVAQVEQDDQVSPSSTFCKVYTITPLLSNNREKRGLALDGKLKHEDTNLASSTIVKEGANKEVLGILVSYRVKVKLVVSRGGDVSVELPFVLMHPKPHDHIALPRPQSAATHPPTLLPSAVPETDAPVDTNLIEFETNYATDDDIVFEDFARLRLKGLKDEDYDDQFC
[4] abbreviates: amount of arrestin3 bound to 300 ng of GST-IC3.
The mark [5] stands for this setting: rate of association, data not shown.
Where [6] appears, read: saturation analysis, 300 ng GST-IC3, 30 min room temperature.

Regarding “Arrestin2: purified bovine arrestin2, non-visual arrestin also termed β-arrestin 1”, the “binding of arrestin2” value in assay [1] (GST pull-down, in words) is “bound weakly”; in assay [2] (GST pull-down, in words), “bound weakly”.

As to “Arrestin3: purified bovine arrestin3, non-visual arrestin also termed β-arrestin 2”, the Bmax in assay [1] (setting [4]) stood at 10.1 ± 0.6 ng; in assay [2] (setting [4]) it was 10.2 ± 0.6 ng. Also, the half-time for binding result in assay [1] (setting [5]) is “approximately 2 min”. The “time at which binding approached equilibrium” value in assay [1] (setting [5]) is given as not above 15 min. Further, the Kd in assay [1] (setting [6]) is 72 ± 14 nM; in assay [1] (summary for D2-like receptor IC3 (D2-IC3 and D3-IC3), GST pull-down) it was 70 to 80 nM; in assay [2] (setting [6]), 79 ± 14 nM. Besides, the “decrease of arrestin binding” value in the assay with D2-IC3ΔNT5 and with D2-IC3ΔNT10 was “about 60%” throughout.

As for pertussis toxin [PTX], the “effect of PTX on activation of ERKs” value on wild type D2 receptor and at D2-A4 mutant receptor was “greatly decreased” throughout.

B1: GST-D2-IC3 (GST fusion of the third intracellular loop of the rat dopamine D2L receptor, amino acids 211-371) (domain or fragment, UniProt P61169 211-371, looked up)
chain: T1 sequence (P61169 211-371)
With B1, the dissociation constant Kd in assay [3] is 72 nM. This lies in the double-digit nanomolar range.

B2: GST-D3-IC3 (GST fusion of the third intracellular loop of the rat dopamine D3 receptor, amino acids 210-372) (domain or fragment, UniProt P19020 210-372, looked up)
chain: T2 sequence (P19020 210-372)
In assay [3], B2 yielded a Kd of 79 nM.

(Values after PMC2606918 (Molecular pharmacology, 2008).)
